Experimental data reported in patent US20100099203A1.

Experiments:
Protein A [1] = biological target: Protein A (UniProt P38507); test: Back scattering interferometry, free solution in PBS, 0.67 uM Protein A with IgG varied over 6 concentrations, 2 h at room temperature, PEG-5mer passivated chip
Protein A [2] = biological target: Protein A (UniProt P38507); test: Back scattering interferometry, free solution in PBS, 0.67 uM Protein A with IgG varied over 6 concentrations, 2 h at room temperature, PEG 200 passivated chip

Kd (Protein A [1]) [nM] | Kd (Protein A [2]) [nM] | Substance
8 | – | IgG (antibody)
– | 35 | IgG Fc segment
